Residue numbers refer to the chain shown, from its start.
T1: Cytochrome c oxidase (Bos taurus, UniProt P68530)
T1 chain: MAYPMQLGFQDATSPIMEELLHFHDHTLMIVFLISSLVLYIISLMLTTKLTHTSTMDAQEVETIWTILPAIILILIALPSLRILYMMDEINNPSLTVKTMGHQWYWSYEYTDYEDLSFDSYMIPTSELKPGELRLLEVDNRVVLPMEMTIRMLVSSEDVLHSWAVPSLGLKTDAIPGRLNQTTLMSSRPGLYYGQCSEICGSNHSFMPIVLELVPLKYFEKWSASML

T2: Cytochrome c oxidase (Bos taurus, UniProt P68530)
T2 chain: T1 chain with E89T

B1: Cytochrome c (protein)
chain: not shown
B2: Ru-39-Cytochrome c (protein)
chain: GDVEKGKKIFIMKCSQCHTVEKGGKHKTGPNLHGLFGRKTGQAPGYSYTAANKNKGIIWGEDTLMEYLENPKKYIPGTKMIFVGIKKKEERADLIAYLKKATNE
modifications: (dimethylbipyridine)(bisbipyridine)ruthenium at Cys-39
B3: Cytochrome c (protein)
chain: not shown

Columns and labels:
Cytochrome c oxidase [1] = biological target: T1, Cytochrome c oxidase; assay: analytical ultracentrifugation
Cytochrome c oxidase [2] = biological target: T2, Cytochrome c oxidase; assay: analytical ultracentrifugation
Cytochrome c oxidase [3] = biological target: T1, Cytochrome c oxidase; assay: laser flash photolysis

Kd (Cytochrome c oxidase [1]) [µM]	Kd (Cytochrome c oxidase [2]) [µM]	Kd (Cytochrome c oxidase [3]) [µM]	Binder
4.7	2.1	–	B1
–	–	8	B2
28.4	–	–	B3
